US20250270320A1 (EUTILEX, published 2025)
Blank lines part the entries; values can stand above or below the binder they belong to.

Key:
[1] = molecular target: T1, human PD-1 expressed on cells (human, UniProt Q15116 25-288); experiment: cell-based or functional assay
[2] = molecular target: T2, recombinant human PD-1-His protein (ECD) (human, UniProt Q15116 25-170); experiment: SPR, purified hybridoma antibody, recombinant human PD-1-His (ECD)
T2 construct: extracellular domain; Used as ELISA coat and SPR partner; also called rhprotein; antigen; not shown: His tag
T2 sequence (Q15116 25-170): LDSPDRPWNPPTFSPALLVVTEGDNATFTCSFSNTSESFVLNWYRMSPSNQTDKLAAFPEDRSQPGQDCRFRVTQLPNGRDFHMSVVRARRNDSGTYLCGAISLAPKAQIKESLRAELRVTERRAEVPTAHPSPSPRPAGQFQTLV

[3] = molecular target: T1, human PD-1 expressed on cells; experiment: flow cytometry on activated hCD8 T cells from human blood, 2nd-hIgG-PE detection; 2nd-hIgG-PE alone 1.73
[4] = molecular target: T1, human PD-1 expressed on cells; experiment: flow cytometry on cells overexpressing hPD-1
[5] = molecular target: T1, human PD-1 expressed on cells; experiment: cell-based or functional assay; remark: listed apart in the source
[6] = molecular target: T2, recombinant human PD-1-His protein (ECD); experiment: SPR; number in the sensorgram panel without name or unit, taken as KD in M because 8.999e-9 stands for 9 nM in FIG 9d
[7] = molecular target: T2, recombinant human PD-1-His protein (ECD); experiment: Q-ELISA of purified antibody on recombinant human PD-1-His, drawn table
Method: For ELISA, the recombinant human PD-1-His protein was O/N coated on a 96-well ELISA plate at 4° C., and blocked with 5% non-fat skim milk at RT for 1 hr. […]

[8] = molecular target: T1, human PD-1 expressed on cells; experiment: flow cytometry on hPD-1/293 cells, 2nd-hIgG-PE detection; Ctl 2nd-hIgG 0.17, cell only 0.03
Text: In addition, each purified humanized antibody was bound to 293 cells expressing human PD-1 and analyzed by flow cytometry.

[9] = molecular target: T2, recombinant human PD-1-His protein (ECD); experiment: SPR, purified antibody, PD-1 antigen
[10] = molecular target: T2, recombinant human PD-1-His protein (ECD); experiment: SPR; number in the sensorgram panel without name or unit, taken as KD in M because 5.789e-9 stands for 5.8 nM in FIG 9d

T1 sequence (Q15116 25-288): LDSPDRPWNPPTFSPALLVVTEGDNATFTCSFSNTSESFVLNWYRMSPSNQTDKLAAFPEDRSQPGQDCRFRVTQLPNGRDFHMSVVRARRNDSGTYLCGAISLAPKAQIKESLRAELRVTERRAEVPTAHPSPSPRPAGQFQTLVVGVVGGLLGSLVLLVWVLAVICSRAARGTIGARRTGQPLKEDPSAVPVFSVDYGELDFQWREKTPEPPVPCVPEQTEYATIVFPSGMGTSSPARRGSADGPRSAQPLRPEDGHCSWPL

B1: 2-7C5 hybridoma antibody (antibody, V domains shown)
VH: EVQLVESGGGLVQPVGSLKLSCAASGFTFSSFGMSWVRQTPDKRLELVATIYSNGDYTYYPDSVKGRFTVSRDNAKNTLYLQMSSLKSEDTAMYYCARYYGNYGGYFDYWGQGTTLTVSS
VL: SIVMTQTPKFLLVSAGDRVTITCKASQSVSNDVAWYQQKPGQSPKLLIYYASNRYTGAPDRFTGSGYGTDFTFTISTVQAEDLAVYFCQQDYSSPPTFGGGTKLEIK
notes: Mouse hybridoma antibody
IC50 (read off the curve); PD-1/PD-L1 blocking reporter assay, fold induction [1]: ~3 µg/mL
Kd [2]: 17.1 nM
koff [2]: 0.00127 s⁻¹
kon [2]: 74200 M⁻¹ s⁻¹

B6: 4-8D4 hybridoma antibody (antibody, V domains shown)
VH: QVQLQQSGAELAKPGASVKMSCKASGYTFTTYWIHWVKQRPGQGLEWIGYINPTTGYTEYNQKFKDKATLTADKSSNTAYMQLSSLTSEDSAVYYCARGVRYYFDYWGKGTTLTVSS
VL: DIVMSQSPSSLAVSAGEKVTMSCKSSQSLLDSRTRKNYLAWYQQKPGQSPKLLIYWASTRESGVPDRFTGSGSGTDFTLTISSVKAEDLAVYLCKQSYNLITFGAGTKLELK
notes: Mouse hybridoma antibody
IC50 (read off the curve); PD-1/PD-L1 blocking reporter assay, fold induction [1]: ~3 µg/mL
Kd [2]: 15.9 nM
koff [2]: 0.00106 s⁻¹
kon [2]: 66700 M⁻¹ s⁻¹

B8: 8D4-T16-02 (antibody, V domains shown)
VH: QVQLVQSGAEVKKPGASVKVSCKASGYTFTTYWIHWVRQAPGQGLEWIGYINPTTGYTEYNQKFKDRATLTADKSTSTAYMELSSLRSEDTAVYYCARGVRYYFDYWGKGTTVTVSS
VL: DIVMTQSPDSLAVSLGERATINCKSSQSLLDSRTRKNYLAWYQQKPGQPPKLLIYWASTRESGVPDRFSGSGSGTDFTLTISSLQAEDVAVYYCQQQYDPPITFGQGTKLEIK
notes: Engineered clone of humanized 8D4; also called T1-02
Kd [6]: 1800 nM
percent of cells in the positive quadrant [4]: 95.5%

B9: humanized antibody 2B3W (antibody, V domains shown)
VH: EVQLVESGGGLVQPGGSLRLSCAASGFVFSNYDMSWVRQAPGKGLEWVAYITIGGGTTYYPDTVKGRFTISRDNAKNSLYLQMNSLRAEDTAVYYCARWVYDPLYAMDYWGQGTTVTVSS
VL: DIVLTQTPLSLSVTPGQPASISCRASESVDNYGISFMNWFLQKPGQPPQLLIYAASNQGSGVPDRFSGSGSGTDFTLKISRVEAEDVGVYYCQQSKEVPWTFGQGTKVEIK
notes: Humanized antibody made in Expi293 cells
OD=405, row 1 of 8 (1/2 serial dilution from 500ng) [7]: 3.17
OD=405, row 2 of 8 (1/2 serial dilution from 500ng) [7]: 3.15
OD=405, row 3 of 8 (1/2 serial dilution from 500ng) [7]: 3.2
OD=405, row 4 of 8 (1/2 serial dilution from 500ng) [7]: 3.13
OD=405, row 5 of 8 (1/2 serial dilution from 500ng) [7]: 2.92
OD=405, row 6 of 8 (1/2 serial dilution from 500ng) [7]: 2.45
OD=405, row 7 of 8 (1/2 serial dilution from 500ng) [7]: 1.7
OD=405, row 8 of 8 (1/2 serial dilution from 500ng) [7]: 1.09
percent of cells in the positive quadrant [3]: 9.77%
percent of cells in the positive quadrant [8]: 94.7%
percent of cells in the positive quadrant [4]: 95.6%
Kd [9]: 13.4 nM
koff [9]: 0.00271 s⁻¹
kon [9]: 203000 M⁻¹ s⁻¹
Kd [10]: 428 nM

B10: T14-04 (antibody, V domains shown)
VH: EVQLVESGGGLVQPGGSLRLSCAASGFVFSNYDMSWVRQAPGKGLEWVAYITIGGGTTYYPDTVKGRFTISRDNAKNSLYLQMNSLRAEDTAVYYCARWRYDPLFAMDYWGQGTTVTVSS
VL: DIVLTQTPLSLSVTPGQPASISCRASESVDNYGISFMNWFLQKPGQPPQLLIYAASNQGSGVPDRFSGSGSGTDFTLKISRVEAEDVGVYYCQQSKEVPWTFGQGTKVEIK
percent of cells in the positive quadrant [3]: 17.1%
percent of cells in the positive quadrant [4]: 95%
EC50 (read off the curve); PD-1/PD-L1 Blockade Bioassay, luciferase RAU [5]: ~0.8 µg/mL

B11: T14-03 (antibody, V domains shown)
VH: EVQLVESGGGLVQPGGSLRLSCAASGFVFSNYDMSWVRQAPGKGLEWVAYITIGGGTTYYPDTVKGRFTISRDNAKNSLYLQMNSLRAEDTAVYYCARWVYDPLYAMDYWGQGTTVTVSS
VL: DIVLTQTPLSLSVTPGQPASISCRASESVTDYGISFMNWFLQKPGQPPQLLIYAASNQGSGVPDRFSGSGSGTDFTLKISRVEAEDVGVYYCQQSEEVPWTFGQGTKVEIK
percent of cells in the positive quadrant [3]: 9.55%
percent of cells in the positive quadrant [4]: 90.9%

B12: T14-02 (antibody, V domains shown)
VH: EVQLVESGGGLVQPGGSLRLSCAASGFVFSNYDMSWVRQAPGKGLEWVAYITIGGGTTYYPDTVKGRFTISRDNAKNSLYLQMNSLRAEDTAVYYCARWVYDPLYAMDYWGQGTTVTVSS
VL: DIVLTQTPLSLSVTPGQPASISCRASESVDNYGISFMNWFLQKPGQPPQLLIYAASNQGSGVPDRFSGSGSGTDFTLKISRVEAEDVGVYYCQQSEEVPWTFGQGTKVEIK
percent of cells in the positive quadrant [3]: 11.8%
percent of cells in the positive quadrant [4]: 96%

B13: T14-01 (antibody, V domains shown)
VH: EVQLVESGGGLVQPGGSLRLSCAASGFVFSNYDMSWVRQAPGKGLEWVAYITIGGGTTYYPDTVKGRFTISRDNAKNSLYLQMNSLRAEDTAVYYCARWVYDPLYAMDYWGQGTTVTVSS
VL: DIVLTQTPLSLSVTPGQPASISCRASESVTDYGISFMNWFLQKPGQPPQLLIYAASNQGSGVPDRFSGSGSGTDFTLKISRVEAEDVGVYYCQQSKEVPWTFGQGTKVEIK
percent of cells in the positive quadrant [3]: 17.4%
percent of cells in the positive quadrant [4]: 96.8%

Now from value to binder:

percent of cells in the positive quadrant [3]: 19.3%
percent of cells in the positive quadrant [4]: 96.9%
B2: T15-02 (antibody, V domains shown)
VH: EVQLVESGGGLVKPGGSLRLSCAASGFTFSSFGMSWVRQAPGKGLELVATIYSNGDYTYYPDSVKGRFTVSRDNAKNSLYLQMNSLRAEDTAVYYCARYYGNYGGYFDYWGQGTLVTVSS
VL: AIQMTQSPSSLSASVGDRVTITCKASQSVSNDVAWYQQKPGKAPKLLIYYASNRYTGVPSRFSGSGSGTDFTLTISSLQPEDFATYYCQQDFWYPPTFGGGTKVEIK

percent of cells in the positive quadrant [3]: 10.7%
percent of cells in the positive quadrant [4]: 96.7%
EC50 (read off the curve); PD-1/PD-L1 Blockade Bioassay, luciferase RAU [5]: ~1 µg/mL
B3: T15-03 (antibody, V domains shown)
VH: EVQLVESGGGLVKPGGSLRLSCAASGFTFSSFGMSWVRQAPGKGLELVATIYSNGDYTYYPDSVKGRFTVSRDNAKNSLYLQMNSLRAEDTAVYYCARYYGNYGGYFDYWGQGTLVTVSS
VL: AIQMTQSPSSLSASVGDRVTITCKASQSVSNDVAWYQQKPGKAPKLLIYYAYMRYTGVPSRFSGSGSGTDFTLTISSLQPEDFATYYCHQDYSSPPTFGGGTKVEIK

percent of cells in the positive quadrant [3]: 16.1%
percent of cells in the positive quadrant [4]: 97.5%
B4: T15-05 (antibody, V domains shown)
VH: EVQLVESGGGLVKPGGSLRLSCAASGFTFSSFGMSWVRQAPGKGLELVATIYHSRDYTYYPDSVKGRFTVSRDNAKNSLYLQMNSLRAEDTAVYYCARYYGNYGGYFDYWGQGTLVTVSS
VL: AIQMTQSPSSLSASVGDRVTITCKASQSVSNDVAWYQQKPGKAPKLLIYYASNRYTGVPSRFSGSGSGTDFTLTISSLQPEDFATYYCQQDYSSPPTFGGGTKVEIK

percent of cells in the positive quadrant [3]: 12.4%
percent of cells in the positive quadrant [4]: 96.6%
B5: T15-04 (antibody, V domains shown)
VH: EVQLVESGGGLVKPGGSLRLSCAASGFTFSSFGMSWVRQAPGKGLELVATIYSNGDYTYYPDSVKGRFTVSRDNAKNSLYLQMNSLRAEDTAVYYCARYYGNYGGYFDYWGQGTLVTVSS
VL: AIQMTQSPSSLSASVGDRVTITCKASQSVSNDVAWYQQKPGKAPKLLIYYAYMRYTGVPSRFSGSGSGTDFTLTISSLQPEDFATYYCQQDYSSPPTFGGGTKVEIK

Kd [6]: 18.5 nM
OD=405, row 1 of 8 (1/2 serial dilution from 500ng) [7]: 3.35
OD=405, row 2 of 8 (1/2 serial dilution from 500ng) [7]: 3.31
OD=405, row 3 of 8 (1/2 serial dilution from 500ng) [7]: 3.33
OD=405, row 4 of 8 (1/2 serial dilution from 500ng) [7]: 3.26
OD=405, row 5 of 8 (1/2 serial dilution from 500ng) [7]: 2.95
OD=405, row 6 of 8 (1/2 serial dilution from 500ng) [7]: 2.41
OD=405, row 7 of 8 (1/2 serial dilution from 500ng) [7]: 1.61
OD=405, row 8 of 8 (1/2 serial dilution from 500ng) [7]: 0.975
percent of cells in the positive quadrant [8]: 96.1%
percent of cells in the positive quadrant [4]: 96.2%
Kd [9]: 29.6 nM
koff [9]: 0.00176 s⁻¹
kon [9]: 59400 M⁻¹ s⁻¹
B7: humanized antibody 8D4 (antibody, V domains shown)
VH: QVQLVQSGAEVKKPGASVKVSCKASGYTFTTYWIHWVRQAPGQGLEWIGYINPTTGYTEYNQKFKDRATLTADKSTSTAYMELSSLRSEDTAVYYCARGVRYYFDYWGKGTTVTVSS
VL: DIVMTQSPDSLAVSLGERATINCKSSQSLLDSRTRKNYLAWYQQKPGQPPKLLIYWASTRESGVPDRFSGSGSGTDFTLTISSLQAEDVAVYYCKQSYNLITFGQGTKLEIK
notes: Humanized antibody
